According to US8343491B2, “Anti-HIMF antibodies to treat lung diseases” (The Johns Hopkins University, priority 2006, dated 2013):
“Also recorded” adds a separate entry of the source.

Key:
bone marrow cells [1] = experiment: Cell migration assay (Transwell); assay type: cell-based, mouse
Procedure: FIGS. 6A-6D. CD45 positive cell migration was stimulated by HIMF and inhibited by BTK inhibitor. Bone marrow cells were cultured on cover glass in 12 well plates as described in FIG. 5A-5B. The cells were then treated with BSA (FIG. 6A) or HIMF (FIG. 6B and FIG. 6C) for 4 days and fixed with pre-cooled methanol before immunocytochemistry with the indicated first antibodies. DAPI staining was used to show the nuclei. […] 5×10^5 bone marrow cells in 2% fetal bovine serum DMEM culture medium were transferred to each transwell in the presence of 50 nM BSA, HIMF, or HIMF plus 25 μM LFM-A13, respectively. The cells were cultured for 6 hours, fixed in pre-cooled methanol and stained by Coomassie Blue solution. The cells growing on the surface of the membrane were removed after staining. Bone marrow cell migration was induced by HIMF and this induction was inhibited by BTK inhibitor LFM-A13 (FIG. 6D).
Cell migration assay. Bone marrow cells were detached with trypsin-EDTA, washed in serum-free medium, and then counted and adjusted to 10^6 cells/ml. […]
BTK stimulated the migration of bone marrow cells. […] Cell migration was further determined by partial trypsin digestion culture, leaving the cells to grow in colonies on a cover glass.

BTK [2] = target: T1, BTK (Mus musculus, UniProt P35991); experiment: BTK redistribution in bone marrow cells (immunofluorescence); assay type: cell-based; conditions: 50 nM HIMF, 5 minutes
T1 construct: incubated with bone marrow cell lysate or hypoxia tissue homogenate for three hours; endogenous in cells; host or cells: lysate of cultured mouse bone marrow cells; in the second result, homogenate of mouse hind limb hypoxic tissue
T1 sequence (P35991 whole entry): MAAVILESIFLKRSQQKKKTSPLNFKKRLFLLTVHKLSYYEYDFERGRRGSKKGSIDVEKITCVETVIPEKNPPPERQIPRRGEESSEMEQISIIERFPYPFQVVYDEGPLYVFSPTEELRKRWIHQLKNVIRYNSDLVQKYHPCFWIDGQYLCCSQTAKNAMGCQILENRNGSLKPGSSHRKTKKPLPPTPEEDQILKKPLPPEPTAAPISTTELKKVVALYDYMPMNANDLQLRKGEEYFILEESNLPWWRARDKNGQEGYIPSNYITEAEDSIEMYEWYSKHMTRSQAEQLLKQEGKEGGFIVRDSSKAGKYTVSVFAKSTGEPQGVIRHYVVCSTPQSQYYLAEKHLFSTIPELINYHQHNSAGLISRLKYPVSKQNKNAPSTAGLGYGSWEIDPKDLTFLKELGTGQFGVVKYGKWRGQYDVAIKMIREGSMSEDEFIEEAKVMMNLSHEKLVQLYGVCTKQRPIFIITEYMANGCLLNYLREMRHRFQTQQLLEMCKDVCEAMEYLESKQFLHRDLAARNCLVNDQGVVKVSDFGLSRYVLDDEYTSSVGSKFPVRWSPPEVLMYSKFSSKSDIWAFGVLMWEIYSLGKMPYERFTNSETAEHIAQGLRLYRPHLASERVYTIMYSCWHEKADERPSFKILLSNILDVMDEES
Procedure: FIGS. 3A-3B. BTK redistribution in response to the stimulation of HIMF. Primary cultured bone marrow. Bone marrow cells were cultured on cover glass and then treated with 50 nM BSA (FIG. 3A) or HIMF (FIG. 3B) for five minutes. Cells were fixed by pre-cooled methanol before indirect immunofluorescence. BTK or FYN, a binding partner for BTK, was redistributed in bone marrow cells after the treatment of HIMF.
Immunofluorescence microscopy. Bone marrow or COS-7 cells were cultured on coverslips in DMEM containing 10% FBS and fixed in pre-cooled methanol for 5 minutes. The cells were then permeabilized with 0.2% Triton X-100 in PBS and blocked with 0.5% bovine serum albumin in PBS followed by incubation with the indicated antibodies. FITC-donkey anti-rabbit IgG and Rhodamine-donkey anti-mouse IgG were used as second antibodies. For transfection experiments, cells were cultured overnight and transfected with indicated constructs in serum-free medium for four hours and changed into DMEM containing 10% FBS overnight. Cells were fixed and stained as above. A 510 confocal microscope was used for the imaging.
Translocation of BTK in bone marrow cells in response to the stimulation of HIMF. […] The activation of BTK family tyrosine kinases will result in their stimulated translocation to membrane fractions (24). […]

bone marrow cells [3] = experiment: Cell migration out of colony (partial trypsin digestion culture); assay type: cell-based, mouse; conditions: 50 nM HIMF, 2% FBS DMEM, four days
Procedure: FIGS. 5A-5B. HIMF stimulated bone marrow cell migration. Bone marrow cells were partially digested by trypsin-EDTA solution, washed by PBS and then sucked up and transferred to twelve well plates using a 1000 μl tip. The cells were cultured in 2% fetal bovine serum DMEM with 50 nM BSA or HIMF for four days. More cells migrated out of the original cell colony in the presence of HIMF than those in BSA (FIG. 5A). 5×10^5 bone marrow cells were cultured in transwell plates in the presence of 50 nM BSA or HIMF. The cells were cultured overnight, fixed in pre-cooled methanol and stained by Coomassie Blue solution. The cells growing on the surface of the membrane were removed after staining (FIG. 5B). A Nikon Eclipse microscope was used for the imaging.
BTK stimulated the migration of bone marrow cells. To test whether HIMF stimulates the migration of bone marrow cells, bone marrow cells were cultured in transwell plates in the presence of […] BSA or HIMF. The cells were cultured overnight, fixed in methanol and stained by Coomassie Blue solution. Cells growing on the surface of the membrane were removed by cotton tipped applicators before imaging. […] Cell migration was further determined by partial trypsin digestion culture, leaving the cells to grow in colonies on a cover glass.

[4] = test system: hindlimb ischemia tissues; experiment: Mouse hindlimb ischemic model, agarose gel implant; assay type: in vivo; conditions: 100 nM HIMF in 2% agarose gel implanted, two weeks, versus BSA gel
Procedure: FIGS. 7A-7B. […] Mouse hind limb ischemia model was established and agarose gel containing 100 nM BSA or 100 nM HIMF (gels were cut into 2×5×8 mm pieces) were buried subcutaneously at the sites of ischemia. Two weeks later, the ischemic tissues were collected for immunocytochemistry. The tissue treated by HIMF (FIG. 7B) was shown increasing in CD34 positive cells comparing to that of BSA treated tissue (FIG. 7A).
Mouse hindlimb ischemic model. Animals were subjected to left femoral artery ligation and excision to create unilateral hind limb ischemia. For each animal, 25 mg/kg ketamine plus 10 mg/kg xylazine was injected subcutaneously. Skin incisions were performed at the middle portion of the left hind limb overlying the femoral artery. The femoral artery was gently isolated. First the proximal portion and then the distal portion of the femoral artery were ligated, and then other arterial branches as well as veins were dissected free and excised. The overlying skin was closed using two surgical staples. Tissue in the hypoxia area was removed and homogenized in TBST buffer two weeks after the operation.
HIMF promoted angiogenesis in hypoxic tissues. Hypoxia can induce pulmonary artery adventitial remodeling and neovascularization. […]

Fyn = Fyn phosphorylation in bone marrow cells; assay type: cell-based, mouse; conditions: bone marrow cells stimulated with HIMF
Procedure: (§1) FIGS. 4A-4C. BTK self-phosphorylation in response to the treatment of HIMF. Three plates of primary cultured bone marrow cells that were passed from the same plate of cells were cultured to confluence and then treated with HIMF (5 minutes and 30 minutes), or without HIMF. The cell lysates were used for the Western blot. The membrane was first probed by anti-BTK phosphorylation (Y223) antibody and then was probed by anti-BTK antibody after stripping (FIG. 4A). Five plates of primary cultured bone marrow cells that were passed from same plates of cells were cultured to confluence and then treated with HIMF (2.5, 5, 10 and 20 minutes respectively) or without HIMF. The cell lysates were used for the Western blot. The membrane was first detected by anti-BTK phosphorylation (Y223) antibody and then by anti-tubulin antibody (FIG. 4B). The same samples were used for the detection of fyn phosphorylation (FIG. 4C). Phosphorylation of Y416 upregulates enzyme activity. Phosphorylation of Y528 negatively regulates enzyme activity.
(§2) Protein phosphorylation assays. […] The supernatants of the samples were quantified for protein concentration and subjected to electrophoresis on a 4-15% SDS-polyacrylamide gel (Bio-Rad). […]

BTK [5] = target: T1, BTK; experiment: Protein phosphorylation assay (BTK Y223) in bone marrow cells; assay type: cell-based; conditions: 50 nM HIMF, minutes
Procedure: as §1, §2

BTK [6] = target: T1, BTK; experiment: GST pull-down assay; assay type: binding
Procedure: FIGS. 1A-1B. BTK is a HIMF-binding molecule. GST-HIMF fusion protein and GST were incubated with glutathione-sepharose beads and then incubated with bone marrow cell lysate respectively in TBST buffer at 4° C. for three hours. The beads were washed five times by TBST and loading buffer was added to the samples. After electrophoresis, the gel was stained by Coomassie Blue. […] GST-HIMF and GST were first bonded to glutathione sepharose and then incubated with the lysate of bone marrow cells (left) or homogenate of ischemic tissue (right) at 4° C. for three hours and then washed by TBST solution three times. After SDS-PAGE and transfer to membrane, the samples were detected by anti-BTK and anti-GST antibodies (FIG. 1B).
GST pull-down assay. Bone marrow cells were cultured in ten 150×25 mm plates until confluence and collected for lysate using TBST buffer. Lysate from ten plates of bone marrow cells was used for HIMF-binding partner screening assay. Hypoxia tissue homogenate was prepared as described above. BL21 bacterial lysates for GST and GST-HIMF were first incubated with glutathione agarose in 0.1% TBST buffer for three hours and then washed three times by 0.1% TBST buffer. The GST and GST-HIMF binding glutathione agaroses were incubated with bone marrow cell lysate or hypoxia tissue homogenate for three hours and then washed 3-5 times before SDS-PAGE.

Molecule: C/C(O)=C(\C#N)C(=O)Nc1cc(Br)ccc1Br [LFM-A13, reference compound]
- Inhibition of HIMF-induced bone marrow cell migration (bone marrow cells [1]; 25 μM LFM-A13 plus 50 nM HIMF, transwell, 6 hours): inhibited; also recorded: completely blocked

B1: HIMF: Hypoxia-induced mitogenic factor protein (Flag-tagged mouse HIMF) applied to cells and tissue (protein)
chain: DETIEIIVENKVKELLANPANYPSTVTKTLSCTSVKTMNRWASCPAGMTATGCACGFACGSWEIQSGDTCNCLCLLVDWTTARCCQLS
- BTK translocation in bone marrow cells (BTK [2]): rapidly induced recruitment of BTK to the leading edge of cells
- Bone marrow cell migration out of the colony versus BSA (bone marrow cells [3]): more bone marrow cells were stimulated to migrate out of the colony
- Angiogenesis in hindlimb ischemia tissues [4]: stimulated angiogenesis
- CD34 positive cells in ischemic tissue [4]: increased
- Bone marrow cell migration (transwell) versus BSA (bone marrow cells [1]; 50 nM HIMF, overnight): markedly promoted; also recorded: More cells migrated out of the chamber
- Fyn activity (phosphorylation Y416/Y528) (Fyn): not changed in activity
- BTK self-phosphorylation (Y223) (BTK [5]): stimulate the self-phosphorylation of BTK

B2: GST-HIMF: GST fusion protein of mouse HIMF expressed in BL21 cells (protein)
chain: B1 chain
modifications: left off: a dimerising Fc or GST
notes: GST fusion protein of mouse HIMF expressed in BL21 cells
- Pull-down of BTK from bone marrow cell lysate (BTK [6]; bone marrow cell lysate, GST control did not): pulled down BTK
- Binding of BTK from hind limb hypoxic tissue homogenate (BTK [6]; homogenate of mouse hind limb hypoxic tissue, not to GST): shown to bind
